From patent US8815802 (Novo Nordisk, dated 2014)
Numbered stars: 1 amine (or outer) side, 2 acyl side, 3 side chain; on linkers, the order of the positions; unused ones are H or OH. Square brackets hold non-standard residues; d marks the D form. Side chains are listed from the residue outwards. Ends that are not written are not given here. * marks the point of attachment. Malonyl(2,2-Me2,histaminyl) = CC(C)(C(=O)NCCc1cnc[nH]1)C(=O)*; C20 diacid = O=C(O)CCCCCCCCCCCCCCCCCCC(=O)*; C18 diacid = O=C(O)CCCCCCCCCCCCCCCCC(=O)*; C16 diacid = O=C(O)CCCCCCCCCCCCCCC(=O)*; γGlu = O=C(O)[C@H](CCC(=O)[*:2])N[*:1]; Desaminohistidyl = O=C(CCc1c[nH]cn1)*; Palmitoyl = CCCCCCCCCCCCCCCC(=O)*; Trx = NC[C@H]1CC[C@H](C(=O)O)CC1; AEEA = NCCOCCOCC(=O)O; Aib = CC(C)(N)C(=O)O; Inp = O=C(O)C1CCNCC1

B1: [Aib^8,His^31,Gln^34]GLP-1(7-37)-peptide (peptide)
peptide: HXEGTFTSDVSSYLEGQAAKEFIAHLVQGRG
modifications: Aib8 (GLP-1(7-37) numbering)
notes: unacylated analogue; also called (8Aib, 31H, 34Q)
B2: N^8 3H-Imidazol-4-yl-acetyl, N^ε28-[2-(2-{2-[2-(2-{2-[(S)-4-Carboxy-4-(17-carboxyheptadecanoylamino)butyrylamino]ethoxy}ethoxy)acetylamino] … (peptide)
peptide: AEGTFTSDVSSYLEGQAAK([AEEA-AEEA-γGlu-C18 diacid])EFIAHLVQGRG
modifications: not fully specified (N-terminus); printed as N^8 3H-Imidazol-4-yl-acetyl, N^ε28-[2-(2-{2-[2-(2-{2-[(S)-4-Carboxy-4-(17-carboxyheptadecanoylamino)butyrylamino]ethoxy}ethoxy)acetylamino] ethoxy}ethoxy)acetyl][His^31,Gln^34]GLP-1(8-37)-peptide
B3: [Imp^7,Glu^22,Arg^26,His^31,Gln^34,Lys^37]-GLP-1-(7-37)-peptide (peptide)
peptide: [Desaminohistidyl]AEGTFTSDVSSYLEEQAAREFIAHLVQGRK
notes: unacylated analogue; also called Chem. 40
B4: N^ε36-[2-[2-[2-(17-carboxyheptadecanoylamino)ethoxy]ethoxy]acetyl]-[Aib^8,Glu^30,His^31,Gln^34,Lys^36]-GLP-1-(7-37)-peptidyl-Glu amide (peptide)
peptide: HXEGTFTSDVSSYLEGQAAKEFIEHLVQGKGE
HELM: PEPTIDE1{H.[Aib].E.G.T.F.T.S.D.V.S.S.Y.L.E.G.Q.A.A.K.E.F.I.E.H.L.V.Q.G.K.G.E.[am]}|PEPTIDE2{[O=C(O)CCCCCCCCCCCCCCCCC(=O)[*:2]].[O=C(COCCOCCN[*:1])[*:2]]}$PEPTIDE1,PEPTIDE2,30:R3-2:R2$$$V2.0; N-terminus assumed
SMILES: CC[C@H](C)[C@H](NC(=O)[C@H](Cc1ccccc1)NC(=O)[C@H](CCC(=O)O)NC(=O)[C@H](CCCCN)NC(=O)[C@H](C)NC(=O)[C@H](C)NC(=O)[C@H](CCC(N)=O)NC(=O)CNC(=O)[C@H](CCC(=O)O)NC(=O)[C@H](CC(C)C)NC(=O)[C@H](Cc1ccc(O)cc1)NC(=O)[C@H](CO)NC(=O)[C@H](CO)NC(=O)[C@@H](NC(=O)[C@H](CC(=O)O)NC(=O)[C@H](CO)NC(=O)[C@@H](NC(=O)[C@H](Cc1ccccc1)NC(=O)[C@@H](NC(=O)CNC(=O)[C@H](CCC(=O)O)NC(=O)C(C)(C)NC(=O)[C@@H](N)Cc1c[nH]cn1)[C@@H](C)O)[C@@H](C)O)C(C)C)C(=O)N[C@@H](CCC(=O)O)C(=O)N[C@@H](Cc1c[nH]cn1)C(=O)N[C@@H](CC(C)C)C(=O)N[C@H](C(=O)N[C@@H](CCC(N)=O)C(=O)NCC(=O)N[C@@H](CCCCNC(=O)COCCOCCNC(=O)CCCCCCCCCCCCCCCCC(=O)O)C(=O)NCC(=O)N[C@@H](CCC(=O)O)C(N)=O)C(C)C

Assays:
human GLP-1 receptor [1] = biological target: T1, human GLP-1 receptor (human, UniProt P43220 24-463); assay: SPA, displacement of 125I-GLP-1(7-36)NH2 from hGLP-1R membranes, 2.0% HSA
T1 construct: whole, on cells; Used as purified plasma membranes of the transfected hamster cell line, not as intact cells; also called hGLP-1
Description: (§1) 25 ul (micro liter) of test compounds were added to Optiplate. HSA ("high albumin" experiment containing 2% HSA), or buffer ("low albumin" experiment containing 0.005% HSA), was added (50 ul). 5-10 ug protein/sample was added (50 ul) corresponding to 0.1-0.2 mg protein/ml (to be preferably optimised for each membrane preparation). SPA-particles (Wheatgerm agglutinin SPA beads, Perkin Elmer, #RPNQ0001) were added in an amount of 0.5 mg/well (50 ul). […] The plates were sealed with PlateSealer and incubated for 120 minutes at 30° C. while shaking. The plates were centrifuged (1500 rpm, 10 min) and counted in Topcounter.

human GLP-1 receptor [2] = biological target: T1, human GLP-1 receptor; assay: SPA, displacement of 125I-GLP-1(7-36)NH2 from hGLP-1R membranes, 0.005% HSA
Description: as §1

Binder | IC50 (human GLP-1 receptor [1]) | IC50 (human GLP-1 receptor [2])
HAEGTFTSDVSSYLEGQAAK([AEEA-AEEA-γGlu-C18 diacid])EFIAHLVQGRG | ≤ 1000 nM | < 600 nM
HAEGTK([AEEA-AEEA-γGlu-C18 diacid])TSDVSSYLEEQAAREFIAHLVQGRG | ≤ 1000 nM | < 600 nM
HAEGTK([AEEA-AEEA-C18 diacid])TSDVSSYLEEQAAREFIAHLVQGRG | ≤ 1000 nM | < 600 nM
HAEGTFTSDVSSYLEK([AEEA-AEEA-γGlu-C18 diacid])QAAREFIAHLVQGRG | ≤ 1000 nM | < 600 nM
HAEGTFTSDVSSYLEEQK([AEEA-AEEA-γGlu-C18 diacid])AREFIAHLVQGRG | ≤ 1000 nM | < 600 nM
HSEGTFTSDVSSYLEGQAAK([AEEA-AEEA-γGlu-C18 diacid])EFIAHLVQGRG | ≤ 1000 nM | < 600 nM
HGEGTFTSDVSSYLEGQAAK([AEEA-AEEA-γGlu-C18 diacid])EFIAHLVQGRG | ≤ 1000 nM | < 600 nM
B1 | ≤ 1000 nM | < 600 nM
H[Aib]EGTFTSDVSK([AEEA-AEEA-γGlu-Inp-C20 diacid])YLEEQAAHEFIAHLVQGRG | ≤ 1000 nM | < 600 nM
H[Aib]EGTK([AEEA-AEEA-C18 diacid])TSDVSSYLEEQAAREFIAHLVQGRG | ≤ 1000 nM | < 600 nM
H[Aib]EGTK([AEEA-AEEA-γGlu-C18 diacid])TSDVSSYLEGQAAKEFIAHLVQGRG | ≤ 1000 nM | < 600 nM
H[Aib]EGTK([AEEA-AEEA-γGlu-C18 diacid])TSDVSSYLEEQAAREFIAHLVQGRG | ≤ 1000 nM | < 600 nM
H[Aib]EGTFTSDK([AEEA-AEEA-γGlu-C18 diacid])SSYLEEQAAREFIAHLVQGRG | ≤ 1000 nM | < 600 nM
H[Aib]EGTFTSDVSK([AEEA-AEEA-γGlu-C18 diacid])YLEEQAAREFIAHLVQGRG | ≤ 1000 nM | < 600 nM
H[Aib]EGTFTSDVSSYLEEQK([AEEA-AEEA-γGlu-C18 diacid])AREFIAHLVQGRG | ≤ 1000 nM | < 600 nM
H[Aib]EGTFTSDVSSYLEEQAARK([AEEA-AEEA-γGlu-C18 diacid])FIEHLVQGRP | ≤ 1000 nM | < 600 nM

Binder | IC50 (human GLP-1 receptor [1]) | IC50 (human GLP-1 receptor [2])
H[Aib]EGTFTSDVSSYLEGQAIRK([AEEA-AEEA-γGlu-C18 diacid])FIAHLVQGRG | ≤ 1000 nM | < 600 nM
H[Aib]EGTFTSDVSSYLEGQAARK([AEEA-AEEA-γGlu-C18 diacid])FIAHLVQGRG | ≤ 1000 nM | < 600 nM
H[Aib]EGTFTSDVSSYLEEQAARK([AEEA-AEEA-γGlu-C18 diacid])FIAHLVQGRG | ≤ 1000 nM | < 600 nM
HAEGTFTSDVSSYLEGQAAK([γGlu-C16 diacid])EFIAHLVQGRG [N^ε26-[(4S)-4-carboxy-4-(15-carboxypentadecanoylamino)butanoyl]-[His^31,Gln^34]-GLP-1-(7-37)-peptide] | ≤ 1000 nM | < 600 nM
HAEGTFTSDVSSYLEGQAAK([γGlu-Palmitoyl])EFIAHLVQGRG [N^ε26-[(4S)-4-carboxy-4-(hexadecanoylamino)butanoyl]-[His^31,Gln^34]-GLP-1-(7-37)-peptide] | ≤ 1000 nM | < 600 nM
HXEGTFTSDVSSYLEGQAAKEFIAHLVQGRG (Aib8; Lys26 N-epsilon-acylated (side chain as in name); GLP-1(7-37) numbering) [N^ε26 [(S)-4-Carboxy-4-(2-{2-[2-(2-{2-[2-(17-carboxy-heptadecanoylamino)ethoxy]ethoxy}acetylamino)ethoxy]-ethoxy}acetylamino)butyryl] …, listing 1 of 5 here] | ≤ 1000 nM | < 600 nM
H[dA]EGTFTSDVSSYLEGQAAK([AEEA-AEEA-γGlu-C18 diacid])EFIAHLVQGRG | ≤ 1000 nM | < 600 nM
B2 | ≤ 1000 nM | < 600 nM
HXEGTFTSDVSSYLEGQAAKEFIAHLVQGRG (Aib8; Lys26 N-epsilon-acylated (side chain as in name); GLP-1(7-37) numbering) [N^ε26-[2-(2-{2-[2-(2-{2-[(S)-4-Carboxy-4-(15-carboxypentadecanoylamino)butyrylamino]ethoxy}ethoxy)acetylamino]ethoxy}ethoxy)acetyl][Aib^8,His^31,Gln^34]GLP-1(7- …, listing 2 of 5 here] | ≤ 1000 nM | < 600 nM
HXEGTFTSDVSSYLEGQAAKEFIAHLVQGRG (Aib8; Lys26 N-epsilon-acylated (side chain as in name); GLP-1(7-37) numbering) [N^ε26 [2-(2-(2-{2-[(S)-4-Carboxy-4-(15-carboxypentadecanoylamino)butyrylamino]ethoxy}ethoxy)acetyl][Aib^8,His^31,Gln^34]GLP-1(7-37)-peptide, listing 3 of 5 here] | ≤ 1000 nM | < 600 nM
HXEGTFTSDVSSYLEGQAAKEFIAHLVQGRG (Aib8; Lys26 N-epsilon-acylated (side chain as in name); GLP-1(7-37) numbering) [N^ε26 [(S)-4-Carboxy-4-(15-carboxypentadecanoylamino)butyryl][Aib^8,His^31,Gln^34]GLP-1(7-37)-peptide, listing 4 of 5 here] | ≤ 1000 nM | < 600 nM
{Malonyl(2,2-Me2,histaminyl)}-EGTFTSDVSSYLEGQAAK([AEEA-AEEA-γGlu-C18 diacid])EFIAHLVQGRG (also called Chem. 37) | ≤ 1000 nM | < 600 nM
HXEGTFTSDVSSYLEGQAAKEFIAHLVQGRG (Aib8; Lys26 N-epsilon-acylated (side chain as in name); GLP-1(7-37) numbering) [N^ε26[2-(2-{2-[(S)-4-Carboxy-4-(2-{2-[2-(17-carboxy-heptadecanoylamino)ethoxy]ethoxy}acetylamino)butyryl amino]ethoxy}ethoxy)acetyl] …, listing 5 of 5 here] | ≤ 1000 nM | < 600 nM
B3 | ≤ 1000 nM | < 600 nM
[Desaminohistidyl]AEGTFTSDVSSYLEEQAAREFIAHLVQGRK([AEEA-AEEA-γ‑D‑Glu-Trx-C20 diacid]) | ≤ 1000 nM | < 600 nM
B4 | ≤ 1000 nM | < 600 nM
